B1: ABSCISIC ACID-… 5-like protein 7 (Arabidopsis thaliana (Mouse-ear cress)), Q9M7Q2 (parent)
chain: MGTHINFNNLGGGGHPGGEGSSNQMKPTGSVMPLARQSSVYSLTFDELQNTLGGPGKDFGSMNMDELLKSIWTAEEAQAMAMTSAPAATAVAQPGAGIPPPGGNLQRQGSLTLPRTISQKTVDEVWKCLITKDGNMEGSSGGGGESNVPPGRQQTLGEMTLEEFLFRAGVVREDNCVQQMGQVNGNNNNGFYGNSTAAGGLGFGFGQPNQNSITFNGTNDSMILNQPPGLGLKMGGTMQQQQQQQQLLQQQQQQMQQLNQPHPQQRLPQTIFPKQANVAFSAPVNITNKGFAGAANNSINNNNGLASYGGTGVTVAATSPGTSSAENNSLSPVPYVLNRGRRSNTGLEKVIERRQRRMIKNRESAARSRARKQAYTLELEAEIEKLKKTNQELQKKQAEMVEMQKNELKETSKRPWGSKRQCLRRTLTGPW
partner: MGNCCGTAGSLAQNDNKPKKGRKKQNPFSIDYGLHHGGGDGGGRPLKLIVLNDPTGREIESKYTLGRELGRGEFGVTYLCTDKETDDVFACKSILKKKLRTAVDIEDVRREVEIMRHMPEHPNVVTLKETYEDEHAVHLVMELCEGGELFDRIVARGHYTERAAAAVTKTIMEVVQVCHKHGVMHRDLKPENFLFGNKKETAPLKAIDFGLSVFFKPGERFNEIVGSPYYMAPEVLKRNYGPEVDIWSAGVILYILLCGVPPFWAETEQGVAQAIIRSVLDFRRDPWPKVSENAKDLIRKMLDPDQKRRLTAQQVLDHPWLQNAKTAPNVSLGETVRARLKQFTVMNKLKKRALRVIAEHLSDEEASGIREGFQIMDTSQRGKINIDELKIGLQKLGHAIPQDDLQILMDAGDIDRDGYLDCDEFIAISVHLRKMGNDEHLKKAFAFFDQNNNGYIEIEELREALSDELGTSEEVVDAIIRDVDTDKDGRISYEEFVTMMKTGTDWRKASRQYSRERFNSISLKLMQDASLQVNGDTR

Variants of: B1
Conditions: with cdpkw_arath CPK32, Q6NLQ6

MGTHINFNNLGGGGHPGGEGSSNQMKPTGSVMPLARQSSVYSLTFDELQNTLGGPGKDFGSMNMDELLKSIWTAEEAQAMAMTSAPAATAVAQPGAGIPPPGGNLQRQGALTLPRTISQKTVDEVWKCLITKDGNMEGSSGGGGESNVPPGRQQTLGEMTLEEFLFRAGVVREDNCVQQMGQVNGNNNNGFYGNSTAAGGLGFGFGQPNQNSITFNGTNDSMILNQPPGLGLKMGGTMQQQQQQQQLLQQQQQQMQQLNQPHPQQRLPQTIFPKQANVAFSAPVNITNKGFAGAANNSINNNNGLASYGGTGVTVAATSPGTSSAENNSLSPVPYVLNRGRRSNTGLEKVIERRQRRMIKNRESAARSRARKQAYTLELEAEIEKLKKTNQELQKKQAEMVEMQKNELKETSKRPWGSKRQCLRRTLTGPW [S110A] was tested. Which “effect of a mutation on the interaction” value did it give?
Its value is “disrupting interaction”.

Variants of: B1
Conditions: with cdpkw_arath CPK32, Q6NLQ6
Remark: another data set of the same source

How did the “effect of a mutation on the interaction” value turn out when MGTHINFNNLGGGGHPGGEGSSNQMKPTGSVMPLARQSSVYSLTFDELQNTLGGPGKDFGSMNMDELLKSIWTAEEAQAMAMTSAPAATAVAQPGAGIPPPGGNLQRQGALTLPRTISQKTVDEVWKCLITKDGNMEGSSGGGGESNVPPGRQQTLGEMTLEEFLFRAGVVREDNCVQQMGQVNGNNNNGFYGNSTAAGGLGFGFGQPNQNSITFNGTNDSMILNQPPGLGLKMGGTMQQQQQQQQLLQQQQQQMQQLNQPHPQQRLPQTIFPKQANVAFSAPVNITNKGFAGAANNSINNNNGLASYGGTGVTVAATSPGTSSAENNSLSPVPYVLNRGRRSNTGLEKVIERRQRRMIKNRESAARSRARKQAYTLELEAEIEKLKKTNQELQKKQAEMVEMQKNELKETSKRPWGSKRQCLRRTLTGPW [S110A] was run?
Its value is “decreasing interaction”.

Reference: IntAct's records for PubMed 16299177
